From patent US20170157251A1, “Bi-Specific Monovalent Diabodies That are Capable of Binding CD19 and CD3, and Uses Thereof” (MacroGenics, Inc., priority 2015, published 2017)

What was measured:
human blood leukocytes = test: Flow cytometry binding to human blood leukocytes (B and T cells); settings: 0.005 to 80 nM
Procedure: (§1) Following incubation, binding to leukocytes was detected using a biotinylated anti-E-coil/K-coil (EK) mAb, which recognizes the EK coil heterodimerization region of the DART proteins and streptavidin-PE. […] Similarly, CD20 was used as a B cell marker instead of CD19. Therefore, in this study, the CD4+ and CD8+ gated events represent the T cell population and CD20+ gated events represent the B cell population.

[1] = test system: cynomolgus monkey blood leukocytes; test: Flow cytometry binding to cynomolgus monkey blood leukocytes (B and T cells); settings: 0.005 to 80 nM
Procedure: as §1

B1: Control DART 2: control DART capable of binding to fluorescein and CD19 (protein)
chain 1: ENVLTQSPATLSVTPGEKATITCRASQSVSYMHWYQQKPGQAPRLLIYDASNRASGVPSRFSGSGSGTDHTLTISSLEAEDAATYYCFQGSVYPFTFGQGTKLEIKGGGSGGGGEVKLDETGGGLVQPGRPMKLSCVASGFTFSDYWMNWVRQSPEKGLEWVAQIRNKPYNYETYYSDSVKGRFTISRDDSKSSVYLQMNNLRVEDMGIYYCTGSYYGMDYWGQGTSVTVSSASTKGEVAACEKEVAALEKEVAALEKEVAALEKGGGDKTHTCPPCPAPEAAGGPSVFLFPPKPKDTLMISRTPEVTCVVVDVSHEDPEVKFNWYVDGVEVHNAKTKPREEQYNSTYRVVSVLTVLHQDWLNGKEYKCKVSNKALPAPIEKTISKAKGQPREPQVYTLPPSREEMTKNQVSLWCLVKGFYPSDIAVEWESNGQPENNYKTTPPVLDSDGSFFLYSKLTVDKSRWQQGNVFSCSVMHEALHNHYTQKSLSLSPGK
chain 2: QAVVTQEPSLTVSPGGTVTLTCRSSTGAVTTSNYANWVQQKPGQAPRGLIGGTNKRAPWTPARFSGSLLGGKAALTITGAQAEDEADYYCALWYSNLWVFGGGTKLTVLGGGGSGGGGEVKLDETGGGLVQPGRPMKLSCVASGFTFSDYWMNWVRQSPEKGLEWVAQIRNKPYNYETYYSDSVKGRFTISRDDSKSSVYLQMNNLRVEDMGIYYCTGSYYGMDYWGQGTSVTVSSASTKGKVAACKEKVAALKEKVAALKEKVAALKE
modifications: Amino Acid Sequence of the First Polypeptide Chain of Control DART 2; Amino Acid Sequence of the Second Polypeptide Chain of Control DART 2
binding to B cells (CD20+) and T cells (CD4+ and CD8+) (human blood leukocytes): only mono-specific binding to B cells | binding to B cells (CD20+) and T cells (CD4+ and CD8+) [1]: only mono-specific binding to B cells
